To fix the notation:
B1: fructosyl amino acid oxidase derived from Aspergillus oryzae RIB40 (protein)
chain: MTVTKSSSILIIGAGTWGASTALHLGRRGYTNVTVLDPYTVPSAISAGNDVNKIISSGQYSNKKDEIEVNEILAEEAFKGWTTDPLFKPYYHDTGVVMSACSSAGLDRLGIRVRPEEEPDVSEVTKPEHFRQLAPAVLKGNFPGWRGYHIRSNAGWAHARNALVAAIREAEKLGVKFVTGTQGRVITLIFENNDVKGAVTADGKIWRAEQTVLCAGANAAQFLDFKDQLRPTAWTLAHIRLKPEERALYKNLPVIFNIEKGFFFEPDEERGEIKICDEHPGYTNMVKSADGHLTSLPFEKTQIPKESEARVRALLSETMPQLADRPFSFARVCWCADTANREFIIDRHPEHPSLVLGCGASGRGFKYLPSIGNLIVDAIEDKVPEKVHKLTRWSPDIAVDRKWRDTLGRFGGPNRVMDFHDVKEWTNVQNKDTAKL
B2: CFP-T7-H2-62N (protein)
chain: MTSNRADTRVIVVGGGGTIGSSTALHLVRSGYAPANITVLDTFEIPSAQSAGHDLNKIMGINLRNKVDLQMSLEARQMWKEDELFQPFFHNTGRMDCEHTPEGIEDLKKLYQALHDAGAGLEKTHAWLDNEDEILSKMPLLQRDQIQGWKAIWSQDGGWLAAAKAINAIGQFLKERGVKFGFGGAGSFKQPLFDDEGTTCIGVETADGTKYYADKVVLAAGAWSPTLVDLEDQCCSKAWVYAHIQLTPEEAAEYKGVPVVYNGEFGFFFEPDEFGVIKVCDEFPGFSRFKEHQPYGAPSPKRISVPRSHAKHPTDTYPDASEVSIKKAIATFLPRFQDKELFNRALCWCTDTADAALLMCEHPKWKNFILATGDSGHSFKILPNVGKYVVELIEGRLPEEMAYQWRWRPGGDALKSRRAAPPKDLADMPGWKHDPKL
B3: CFP-T7-H9 (protein)
chain: B2 chain with N62D, R64H
B4: CFP-T7-H8 (protein)
chain: B2 chain with N62D, R64E
B5: CFP-T7-H2-62Q (protein)
chain: B2 chain with N62Q
B6: CFP-T7-H6 (protein)
chain: B2 chain with N62D
B7: CFP-T7-H27 (protein)
chain: B2 chain with N62D, L63K, D106K, A113K
B8: CFP-T7-H24 (protein)
chain: B2 chain with N62D, L63A, D106K, A113K
B9: CFP-T7-H10 (protein)
chain: B2 chain with N62D, D106A
B10: CFP-T7-H28 (protein)
chain: B2 chain with N62D, L63H, E102K, D106K, A113K
B11: CFP-T7-H36 (protein)
chain: B2 chain with N62D, L63H, D68N, E102K, D106K, A113K, A355S
B12: CFP-T7-H2-62E (protein)
chain: B2 chain with N62E
B13: CFP-T7-H29 (protein)
chain: B2 chain with N62D, L63H, D106K, A113K, A419K
B14: CFP-T7-H7 (protein)
chain: B2 chain with N62D, R64A
B15: CFP-T7-H13 (protein)
chain: B2 chain with N62D, A113K
B16: CFP-T7-H12 (protein)
chain: B2 chain with N62D, D106R
B17: CFP-T7-H26 (protein)
chain: B2 chain with N62D, L63H, D106K, A113K
B18: CFP-T7-H2 (protein)
chain: B2 chain with N62A
B19: CFP-T7-H25 (protein)
chain: B2 chain with N62D, L63D, D106K, A113K
B20: CFP-T7-H11 (protein)
chain: B2 chain with N62D, D106K
B21: CFP-T7-H14 (protein)
chain: B2 chain with N62D, A113R
B22: fructosyl peptide oxidase derived from Phaeosphaeria nodorum (protein)
chain: MAPSRANTSVIVVGGGGTIGSSTALHLVRSGYTPSNVTVLDAYPIPSSQSAGNDLNKIMGVSLRNPVDLQLALEARQMWNEDELFKKFFHNTGRLDCAHGEKDIADLKSGYQALVDAGLDATNEWLDSEDEILKRMPLLSRDQIKGWKAIFSKDGGWLAAAKAINAVGEYLRDQGVRFGFYGAGSFKAPLLAEGVCIGVETVDGTRYYADKVVLAAGAWSPTLVELHEQCVSKAWVYGHIQLTPEEAARYKNSPVVYNGDVGFFFEPNEHGVIKVCDEFPGFTRFKMHQPFGAKAPKRISVPRSHAKHPTDTIPDASDVSIRRAIATFMPQFKNKKMFNQAMCWCTDTADAALLICEHPEWKNFVLATGDSGHSFKLLPNIGKHVVELLEGTLADDLAHAWRWRPGSGDALKSRRSAPAKDLADMPGWNHDKPRANL

Where a chain is given by its changes, count along the chain named.

The first series concerns the target T1, α-fructosyl-valyl-histidyl-leucyl-threonyl-proryl-glutamic acid.
T1 chain: VHLTPE
Conditions: not given
Regarding B1, the Specific activity (U/mg), 1 mM αF6P amounted to 0.0022 U/mg.
For B2, the αF6P oxidation activity ratio (relative value (CFP-T7-H2 = 100)) amounted to 120.
For the protein B3, the αF6P oxidation activity ratio (relative value (CFP-T7-H6 = 100)) worked out at 44.
The same measure, in the same setting: as for B4, the figure is 2.
As for B5, the αF6P oxidation activity ratio (relative value (CFP-T7-H2 = 100)) was 11.
In the case of B6, the αF6P oxidation activity ratio (relative value (CFP-T7-H2 = 100)) came out at 513 and the αF6P oxidation activity ratio (relative value (CFP-T7-H6 = 100)) came to 100.
With B7, the αF6P oxidation activity ratio (relative value (CFP-T7-H20 = 100)) turned out to be 7.
On the same count and under the same terms, the result for B8 reads 123.
Regarding B9, the αF6P oxidation activity ratio (relative value (CFP-T7-H6 = 100)) was 301.
For the protein B10, the αF6P oxidation activity ratio (relative value (CFP-T7-H26 = 100)) is 117 and the αF6P oxidation activity ratio (relative value (CFP-T7-H28 = 100)) was found to be 100.
B11 gave a Specific activity (U/mg), 1 mM αF6P of 4.65 U/mg.
As for B12, the αF6P oxidation activity ratio (relative value (CFP-T7-H2 = 100)) was 21.
As for B13, the αF6P oxidation activity ratio (relative value (CFP-T7-H26 = 100)) amounted to 102.
Turning to B14, the αF6P oxidation activity ratio (relative value (CFP-T7-H6 = 100)) was 17.
On the same count and under the same terms, as for B15, the figure is 207.
Still for that read-out and setting: as for B16, the figure is 636.
With B17, the αF6P oxidation activity ratio (relative value (CFP-T7-H20 = 100)) worked out at 142 and the αF6P oxidation activity ratio (relative value (CFP-T7-H26 = 100)) is 100.
Regarding B18, the αF6P oxidation activity ratio (relative value (CFP-T7-H2 = 100)) came to 100.
Take B19: the αF6P oxidation activity ratio (relative value (CFP-T7-H20 = 100)) stood at 24.
For the protein B20, the αF6P oxidation activity ratio (relative value (CFP-T7-H6 = 100)) worked out at 951.
Same read-out and setting: the result for B21 reads 183.
With B22, the Specific activity (U/mg), 1 mM αF6P is 0.0091 U/mg.

Still in this series, the particulars now being: scale: relative value.
With B6, the αF6P oxidation activity worked out at 3.
As for B8, the αF6P oxidation activity amounted to 86.7.
The protein B10 had a αF6P oxidation activity of 134.
For the protein B13, the αF6P oxidation activity was 111.
In turn, B15 displayed a αF6P oxidation activity of 4.33.
On the same count and under the same terms, as for B16, the figure is 11.6; as for B17, 84.3; as for B18, 0.0735.
On the same count and under the same terms, as for B20, the figure is 12.5.
Still for that read-out and setting: the result for B21 reads 4.22.

(Values after patent US20160251695.)
